In article PMC4380455 (PLoS ONE, 2015):

B3: TM1088B (natural protein, T. maritima, UniProt D3KFX8 1-218, looked up)
chain: MKVIIIGGETTAYYLARSMLSRKYGVVIINKDRELCEEFAKKLKATIIHGDGSHKEILRDAEVSKNDVVVILTPRDEVNLFIAQLVMKDFGVKRVVSLVNDPGNMEIFKKMGITTVLNLTTLITNTVEALIFPDEFSSIIPLEQGIEFLSVNVEEDSPVVGKKLKDLPLPRDSIIAAIVRGGVLVVPRGDTEILSGDKLYVIVSAEAKETVEETLLGR
notes: TM1088B of Thermotoga maritima MSB8 (DSM3109), full length, residues 1-218, 24.0 kDa; UniProt D3KFX8_THEMA; also called N1 and C1 domains

Columns and labels:
TM1088A = molecular target: T1, TM1088A (Thermotoga maritima, UniProt D3KFX7); experiment: X-ray crystal structure, […] Å; type: binding; conditions: AMP co-purified from E. coli host, not added; nucleotide site GXGXXG (Gly14/Gly16/Gly19), Arg17, Ala59, Arg105; crystallised pH 6.5
T1 construct: gene TM1088

[1] = molecular target: the molecule itself; experiment: crystal structure; TM1088B C-terminal domain (140-218) alone, tag intact, 1.55 Å, PDB 3JXO; two chains in the asymmetric unit; 25% ethylene glycol, 293 K
[2] = molecular target: the molecule itself; experiment: crystal structure; TM1088A alone, 1.50 Å, PDB 2G1U; one molecule in the asymmetric unit, dimer formed in the crystal lattice; 40% MPD, 5% PEG-8000, 0.1 M cacodylate pH 6.5, 293 K
TM1088B = molecular target: B3; experiment: crystal structure; TM1088A:TM1088B octameric assembly (4 TM1088A, 4 TM1088B, 4 AMP in the asymmetric unit), 3.45 Å, PDB 3L4B; complex at 3 mg/ml with NADH added 1.1:1.0; 0.1 M magnesium chloride, 15% PEG 4000, 0.1 M HEPES pH 7.0; conditions: both partners purified
[3] = molecular target: the molecule itself; experiment: as above

Molecule: Nc1ncnc2c1ncn2[C@@H]1O[C@H](COP(=O)(O)O)[C@@H](O)[C@H]1O [AMP]
- X-ray crystal structure, 1.50 Å (TM1088A): AMP was co-purified with TM1088A and appears in both the high-resolution TM1088A structure

B1: TM1088B C-terminal domain (domain or fragment, T. maritima, UniProt D3KFX8 140-218, looked up)
chain: IPLEQGIEFLSVNVEEDSPVVGKKLKDLPLPRDSIIAAIVRGGVLVVPRGDTEILSGDKLYVIVSAEAKETVEETLLGR
notes: TM1088B of Thermotoga maritima MSB8 (DSM3109), C-terminal domain, residues 140-218; UniProt D3KFX8_THEMA; Crystallised with the tag intact; also called TM1088B (residues 140-218); C1 domain; source: E. coli HK100, plasmid pSpeedET-TM1088B, purified (Ni-NTA agarose)
- stoichiometry N [1]: 2

B2: TM1088A (natural protein, T. maritima, UniProt D3KFX7 1-143, looked up)
chain: MSKKQKSKYIVIFGCGRLGSLIANLASSSGHSVVVVDKNEYAFHRLNSEFSGFTVVGDAAEFETLKECGMEKADMVFAFTNDDSTNFFISMNARYMFNVENVIARVYDPEKIKIFEENGIKTICPAVLMIEKVKEFIIGSEED
notes: TM1088A of Thermotoga maritima MSB8 (DSM3109), full length, residues 1-143, 16.0 kDa; UniProt D3KFX7_THEMA; first open reading frame of the TM1088 locus; The same construct was purified alone (2G1U) and in complex with untagged TM1088B (3L4B) from one plasmid by different purification schemes; AMP co-purified with it; Tag residues are numbered Met(-11) to 0; also called TM_1087.1; N2 domain; …
- stoichiometry N [2]: 2
- binding result (TM1088B): binds

Molecule: B3
- stoichiometry N [3]: 2
